The values below come from the supplement of paper PMC9112550, “Optimization of the antimicrobial peptide Bac7 by deep mutational scanning” (BMC Biology, 2022).

The subject of the data set is Escherichia coli TOP10. Kind of data set: shrunken log2 fold change of peptide-encoding DNA abundance (4.5 h post-induction vs induction); higher = less antimicrobial activity (less host growth inhibition). Conditions: time post-induction: 4.5 h; library: site-saturation at positions 5, 18, 19, 20.
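Note: peptides expressed intracellularly from a pBAD plasmid library in pooled LB shake-flask culture, induced with 0.3% L-arabinose, DNA abundance read by NGS, three biological replicates, DESeq2 with apeglm shrinkage.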

For RRIRYRPPRLPRPRPRPNCLPRP, the “shrunken log2 fold change” value is -0.942.
RRIRSRPPRLPRPRPRPTFKPRP: the “shrunken log2 fold change” value was -0.0617.
With RRIRSRPPRLPRPRPRPMLHPRP, the “shrunken log2 fold change” value is -0.424.
RRIRTRPPRLPRPRPRPWSLPRP: the “shrunken log2 fold change” value is -0.673.
For the sequence RRIRSRPPRLPRPRPRPRNAPRP, the “shrunken log2 fold change” value amounted to 0.374.
Consider RRIRPRPPRLPRPRPRPQFHPRP, for which the “shrunken log2 fold change” value was -0.3.
As for RRIRWRPPRLPRPRPRPPYNPRP, the “shrunken log2 fold change” value is -0.221.
Then RRIRDRPPRLPRPRPRPDMWPRP, with 0.0213; and RRIRQRPPRLPRPRPRPRPNPRP, with 0.183; and RRIRYRPPRLPRPRPRPQRRPRP, with -0.261.
Regarding RRIRLRPPRLPRPRPRPYLRPRP, the “shrunken log2 fold change” value is -0.132.
Next, RRIRTRPPRLPRPRPRPWDKPRP: -0.0249.
Next, RRIRSRPPRLPRPRPRPFIKPRP: -0.275; RRIRERPPRLPRPRPRPPDRPRP: -0.00621.
In the case of RRIRQRPPRLPRPRPRPDKYPRP, the “shrunken log2 fold change” value is -0.0227.
Next, RRIRCRPPRLPRPRPRPADCPRP: -0.0557; RRIRLRPPRLPRPRPRPQFWPRP: 0.099.
For the sequence RRIRKRPPRLPRPRPRPPLKPRP, the “shrunken log2 fold change” value turned out to be 0.419.
On to RRIRWRPPRLPRPRPRPVFQPRP, for which the “shrunken log2 fold change” value was 0.183.
Next, RRIRFRPPRLPRPRPRPNDAPRP: 0.186; RRIRTRPPRLPRPRPRPGEVPRP: 0.211; RRIRHRPPRLPRPRPRPHLSPRP: -0.43.
Next, RRIRRRPPRLPRPRPRPADRPRP: 0.00311; RRIRWRPPRLPRPRPRPCEGPRP: 0.00476.
In the case of RRIRQRPPRLPRPRPRPLVNPRP, the “shrunken log2 fold change” value is -0.0122.
On to RRIRKRPPRLPRPRPRPQFGPRP, for which the “shrunken log2 fold change” value came out at 0.0962.
With RRIRCRPPRLPRPRPRPVHIPRP, the “shrunken log2 fold change” value was -0.831.
Next, RRIRSRPPRLPRPRPRPKRDPRP: 0.0509.
As to RRIRQRPPRLPRPRPRPHEIPRP, the “shrunken log2 fold change” value is -0.0149.
Consider RRIRDRPPRLPRPRPRPQQYPRP, for which the “shrunken log2 fold change” value is -0.473.
With RRIRPRPPRLPRPRPRPVGQPRP, the “shrunken log2 fold change” value worked out at 0.102.
In the case of RRIRKRPPRLPRPRPRPHSFPRP, the “shrunken log2 fold change” value is -0.0644.
As for RRIRWRPPRLPRPRPRPDNLPRP, the “shrunken log2 fold change” value is -0.188.
Then RRIRTRPPRLPRPRPRPNNVPRP, with -0.227; and RRIRKRPPRLPRPRPRPEIHPRP, with 0.27; and RRIRWRPPRLPRPRPRPNLTPRP, with -0.222.
As to RRIRQRPPRLPRPRPRPVKPPRP, the “shrunken log2 fold change” value was -0.00215.
Take RRIRLRPPRLPRPRPRPAQVPRP: the “shrunken log2 fold change” value is 0.324.
On to RRIRGRPPRLPRPRPRPWAIPRP, for which the “shrunken log2 fold change” value turned out to be 0.259.
In the case of RRIRDRPPRLPRPRPRPMMHPRP, the “shrunken log2 fold change” value amounted to 0.937.
On to RRIRMRPPRLPRPRPRPCRNPRP, for which the “shrunken log2 fold change” value was -0.326.
On to RRIRERPPRLPRPRPRPDPQPRP, for which the “shrunken log2 fold change” value was -0.102.
RRIRMRPPRLPRPRPRPWFCPRP: the “shrunken log2 fold change” value is -1.02.
Next, RRIRQRPPRLPRPRPRPNDAPRP: -0.0276; RRIRQRPPRLPRPRPRPALGPRP: 0.563; RRIRDRPPRLPRPRPRPERDPRP: 0.312.
On to RRIRCRPPRLPRPRPRPKHHPRP, for which the “shrunken log2 fold change” value is -0.32.
In the case of RRIRKRPPRLPRPRPRPQDIPRP, the “shrunken log2 fold change” value is -0.116.
For RRIRDRPPRLPRPRPRPLYKPRP, the “shrunken log2 fold change” value worked out at 0.00521.
On to RRIRDRPPRLPRPRPRPVHQPRP, for which the “shrunken log2 fold change” value was -0.0516.
As to RRIRSRPPRLPRPRPRPFHWPRP, the “shrunken log2 fold change” value is -0.108.
As to RRIRFRPPRLPRPRPRPMYVPRP, the “shrunken log2 fold change” value was -1.63.
For the sequence RRIRDRPPRLPRPRPRPVDWPRP, the “shrunken log2 fold change” value stood at 0.812.
Take RRIRKRPPRLPRPRPRPMMWPRP: the “shrunken log2 fold change” value was found to be 0.373.
Take RRIRDRPPRLPRPRPRPHQLPRP: the “shrunken log2 fold change” value is -0.0991.
Regarding RRIRSRPPRLPRPRPRPVVRPRP, the “shrunken log2 fold change” value was determined as 0.367.
Next, RRIRARPPRLPRPRPRPDIIPRP: 0.363; RRIRRRPPRLPRPRPRPSPEPRP: 0.513.
Regarding RRIRLRPPRLPRPRPRPRVDPRP, the “shrunken log2 fold change” value is -0.0238.
In the case of RRIRKRPPRLPRPRPRPEIAPRP, the “shrunken log2 fold change” value was 2.48.
In the case of RRIRPRPPRLPRPRPRPYNKPRP, the “shrunken log2 fold change” value was -1.16.
On to RRIRARPPRLPRPRPRPGPGPRP, for which the “shrunken log2 fold change” value came out at 1.08.
As to RRIRGRPPRLPRPRPRPWYNPRP, the “shrunken log2 fold change” value is -0.358.
RRIRVRPPRLPRPRPRPQTYPRP: the “shrunken log2 fold change” value is -0.647.
Next, RRIRCRPPRLPRPRPRPHAGPRP: 0.185.
Regarding RRIRERPPRLPRPRPRPGNWPRP, the “shrunken log2 fold change” value is -0.0108.
Turning to RRIRRRPPRLPRPRPRPESHPRP, the “shrunken log2 fold change” value came to 0.589.
With RRIRLRPPRLPRPRPRPNCNPRP, the “shrunken log2 fold change” value is -0.535.
Turning to RRIRLRPPRLPRPRPRPEPSPRP, the “shrunken log2 fold change” value is 0.787.
On to RRIRHRPPRLPRPRPRPTNIPRP, for which the “shrunken log2 fold change” value was -0.135.
Consider RRIRKRPPRLPRPRPRPQLDPRP, for which the “shrunken log2 fold change” value amounted to 0.207.
For the sequence RRIRARPPRLPRPRPRPWGFPRP, the “shrunken log2 fold change” value worked out at 0.206.
As for RRIRDRPPRLPRPRPRPEFHPRP, the “shrunken log2 fold change” value stood at 0.858.
On to RRIRHRPPRLPRPRPRPPHFPRP, for which the “shrunken log2 fold change” value worked out at 0.297.
With RRIRPRPPRLPRPRPRPKHCPRP, the “shrunken log2 fold change” value was -0.0919.
RRIRRRPPRLPRPRPRPGFYPRP: the “shrunken log2 fold change” value was -0.107.
Then RRIRTRPPRLPRPRPRPWTDPRP, with -0.17; and RRIRMRPPRLPRPRPRPEIFPRP, with 1.27.
As to RRIRQRPPRLPRPRPRPCPMPRP, the “shrunken log2 fold change” value is -0.203.
As for RRIRERPPRLPRPRPRPDSYPRP, the “shrunken log2 fold change” value was -0.00865.
As to RRIRHRPPRLPRPRPRPVHIPRP, the “shrunken log2 fold change” value was -0.035.
Then RRIRTRPPRLPRPRPRPHDRPRP, with -0.00195.
With RRIRERPPRLPRPRPRPTCLPRP, the “shrunken log2 fold change” value was -0.233.
Take RRIRNRPPRLPRPRPRPQIHPRP: the “shrunken log2 fold change” value is -0.364.
Turning to RRIRERPPRLPRPRPRPYGPPRP, the “shrunken log2 fold change” value was -1.02.
Consider RRIRYRPPRLPRPRPRPRVWPRP, for which the “shrunken log2 fold change” value is 1.85.
In the case of RRIRVRPPRLPRPRPRPAASPRP, the “shrunken log2 fold change” value was determined as 0.267.
For the sequence RRIRIRPPRLPRPRPRPSLNPRP, the “shrunken log2 fold change” value was -0.595.
As for RRIRCRPPRLPRPRPRPWTSPRP, the “shrunken log2 fold change” value was -0.419.
Next, RRIRHRPPRLPRPRPRPSLTPRP: 0.0616.
Regarding RRIRSRPPRLPRPRPRPFSFPRP, the “shrunken log2 fold change” value is -0.633.
Turning to RRIRKRPPRLPRPRPRPYFFPRP, the “shrunken log2 fold change” value came out at 0.168.
With RRIRCRPPRLPRPRPRPMNIPRP, the “shrunken log2 fold change” value is -0.693.
RRIRFRPPRLPRPRPRPTMEPRP: the “shrunken log2 fold change” value is -0.266.
Take RRIRLRPPRLPRPRPRPFTRPRP: the “shrunken log2 fold change” value was -0.0482.
As for RRIRDRPPRLPRPRPRPAPYPRP, the “shrunken log2 fold change” value is -0.352.
For RRIRYRPPRLPRPRPRPDPCPRP, the “shrunken log2 fold change” value is -0.0185.
Consider RRIRHRPPRLPRPRPRPWFTPRP, for which the “shrunken log2 fold change” value was -0.0018.
As for RRIRCRPPRLPRPRPRPVRGPRP, the “shrunken log2 fold change” value was 0.59.
Next, RRIRTRPPRLPRPRPRPITNPRP: -0.489; RRIRWRPPRLPRPRPRPNKMPRP: 0.075.
Turning to RRIRCRPPRLPRPRPRPNDNPRP, the “shrunken log2 fold change” value was -0.692.
For RRIRKRPPRLPRPRPRPVFCPRP, the “shrunken log2 fold change” value was -0.126.
With RRIRTRPPRLPRPRPRPDWFPRP, the “shrunken log2 fold change” value was -0.112.
Regarding RRIRCRPPRLPRPRPRPFSPPRP, the “shrunken log2 fold change” value is -0.181.
Consider RRIRHRPPRLPRPRPRPAWGPRP, for which the “shrunken log2 fold change” value is 0.542.
Then RRIRHRPPRLPRPRPRPNSPPRP, with -0.337; and RRIRPRPPRLPRPRPRPPITPRP, with -0.0969.
Regarding RRIRCRPPRLPRPRPRPGFAPRP, the “shrunken log2 fold change” value was 0.354.
In the case of RRIRMRPPRLPRPRPRPSCIPRP, the “shrunken log2 fold change” value was -0.27.
With RRIRVRPPRLPRPRPRPWAAPRP, the “shrunken log2 fold change” value was determined as 0.049.
Next, RRIRNRPPRLPRPRPRPLNTPRP: -0.413; RRIRLRPPRLPRPRPRPWTTPRP: -0.206; RRIRCRPPRLPRPRPRPMRHPRP: -0.0878.
Next, RRIRWRPPRLPRPRPRPYMFPRP: -0.194.
Next, RRIRARPPRLPRPRPRPAYMPRP: -0.64.
Regarding RRIRNRPPRLPRPRPRPQEQPRP, the “shrunken log2 fold change” value was determined as 0.042.
Then RRIRWRPPRLPRPRPRPRTKPRP, with 1.88; and RRIRERPPRLPRPRPRPMTDPRP, with -0.131; and RRIRFRPPRLPRPRPRPAPKPRP, with 0.379.
For the sequence RRIRIRPPRLPRPRPRPCWGPRP, the “shrunken log2 fold change” value came to 0.162.
Take RRIRDRPPRLPRPRPRPQQCPRP: the “shrunken log2 fold change” value is -0.00965.
Then RRIRLRPPRLPRPRPRPGQMPRP, with 0.482; and RRIRWRPPRLPRPRPRPKGDPRP, with 0.0616.
For RRIRLRPPRLPRPRPRPMEWPRP, the “shrunken log2 fold change” value is -0.0102.
